Source: IntAct's records for PubMed 24217340

B1: Suppressor of fused homolog (Homo sapiens), Q9UMX1 (parent)
chain: MAELRPSGAPGPTAPPAPGPTAPPAFASLFPPGLHAIYGECRRLYPDQPNPLQVTAIVKYWLGGPDPLDYVSMYRNVGSPSANIPEHWHYISFGLSDLYGDNRVHEFTGTDGPSGFGFELTFRLKRETGESAPPTWPAELMQGLARYVFQSENTFCSGDHVSWHSPLDNSESRIQHMLLTEDPQMQPVQTPFGVVTFLQIVGVCTEELHSAQQWNGQGILELLRTVPIAGGPWLITDMRRGETIFEIDPHLQERVDKGIETDGSNLSGVSAKCAWDDLSRPPEDDEDSRSICIGTQPRRLSGKDTEQIRETLRRGLEINSKPVLPPINPQRQNGLAHDRAPSRKDSLESDSSTAIIPHELIRTRQLESVHLKFNQESGALIPLCLRGRLLHGRHFTYKSITGDMAITFVSTGVEGAFATEEHPYAAHGPWLQILLTEEFVEKMLEDLEDLTSPEEFKLPKEYSWPEKKLKVSILPDVVFDSPLH
B2: Zinc finger protein GLI2 (Mus musculus), Q0VGT2 (parent)
chain: METSAPAPALEKKEAKSGLLEDSSFPDPGKKACPLAVAAAVAAHGVPQQLLPAFHAPLPIDMRHQEGRYHYDPHSVHSVHGPPTLSGSPVISDISLIRLSPHPAGPGESPFSAHHPYVNPHMEHYLRSVHSSPTLSMISAARGLSPADVAHEHLKERGLFSLAAPGTNPSDYYHQMTLMASHPTPYGDLLMQSGGAASAPHLHDYLNPVDASRFSSPRVTPRLSRKRALSISPLSDASLDLQRMIRTSPNSLVAYINNSRSSSAASGSYGHLSAGALSPAFTFPHPINPVAYQQILSQQRGLGSAFGHTPPLIQPSPTFLAQQPMTLTSISTMPTQLSSSSSNCLNDANQNKQNSESAVSSTVNPITIHKRSKVKTEAEGLRPASPLGLTQEQLADLKEDLDRDDCKQEAEVVIYETNCHWADCTKEYDTQEQLVHHINNEHIHGEKKEFVCRWQACTREQKPFKAQYMLVVHMRRHTGEKPHKCTFEGCSKAYSRLENLKTHLRSHTGEKPYVCEHEGCNKAFSNASDRAKHQNRTHSNEKPYICKIPGCTKRYTDPSSLRKHVKTVHGPDAHVTKKQRNDVHVRAPLLKENGDNEASAEPGGRGPEESVEASSTSHTVEDCLHIKAIKTESSGLCQSSPGAQSSCSSEPSPLGSAPNNDSGMEMPGTGPGSLGDLTALADTCPGADTSALAAPSTGGLQLRKHMSTVHRFEQLKREKLKSLKDSCSWAGPAPHTRNTKLPPLPVNGSVLENFNNTGGGGPAGLLPSQRLPELTEVTMLSQLQERRDSSTSTMSSAYTVSRRSSGISPYFSSRRSSEASPLGGLRPHNASSADSYDPISTDASRRSSEASQCSGGGPGLLNLTPAQQYNLRAKYAAATGGPPPTPLPGLDRVSLRTRLALLDAPERALPGACPHPLGPRRGSDGPTYSHGHGHGYAGAAPAFPHEGPNSSTRRASDPVRRPDPLILPRVQRFHSTHNMNPGSLPPCADRRGLHVQSHPSVDSNLTRNAYSPRPPSINENVVMEAVAAGVDGPGLECDLGLVEDELVLPDDVVQYIKAHTGGTLDDGIRQGYPTEGTGFPENSKLPSPGLQGHRRLAAADSNMGPSAPGLGGCQLSYSPSSNLNKSNMPVQWNEVSSGTVDALPTQVKPPPFPHSNLAVVQQKPAFGQYPGYNPQSVQSSSGGLDSTQPHLQLRGAPSASRGSYTQQPRQPAAGSQCLGMSAAMSPQASYSQAHPQLSPNIVSGSLNQFSPSCSNMAAKPSHLGLPQQMEVVPNATIMNGHQREHGVPNSSLAAVSQPHPVLSYPQQDSYQQGSNLLSSHQPGFMESQQNAGFGLMQPRPPLEPNTASRHRGVRSGQQQLYARTTGQAMVTSANQETAEAMPKGPAGTMVSLAPQPSQDTGRAQDQNTLYYYGQIHMYEQNGGCPAVQPQPPQPQACSDSIQPEPLPSPGVNQVSSTVDSQLLEPPQIDFDAIMDDGDHSSLFSGALSPTLLHNLSQNSSRLTTPRNSLTLPSIPAGISNMAVGDMSSMLTSLAEESKFLNMMT
partner: B1 chain

Variants of: B1
Conditions: with gli2_mouse Gli2, Q0VGT2

Row | Variant | effect of a mutation on the interaction
1 | MAELRPSGAPGPTAPPAPGPTAPPAFASLFPPGLHAIYGECRRLYPDQPNPLQVTAIVKYWLGGPDPLDYVSMYRNVGSPSANIPEHWHYISFGLSDLYGDNRVHEFTGTDGPSGFGFELTFRLKRETGESAPPTWPAELMQGLARYVFQSENTFCSGDHVSWHSPLDNSESRIQHMLLTEDPQMQPVQTPFGVVTFLQIVGVCTEELHSAQQWNGQGILELLRTVPIAGGPWLITDMRRGETIFEIDPHLQERVDKGIETDGSNLSGVSAKCAWDDLSRPPEDDEDSRSICIGTQPRRLSGKDTEQIRETLRRGLEINSKPVLPPINPQRQNGLAHDRAPSRKDSLESDSSTAIIPHELIRTRQLESVHLKFNQESGARIPLCLRGRLLHGRHFTYKSITGDMAITFVSTGVEGAFATEEHPYAAHGPWLQILLTEEFVEKMLEDLEDLTSPEEFKLPKEYSWPEKKLKVSILPDVVFDSPLH [L380R] | decreasing interaction
2 | D159R | decreasing interaction

Variants of: B1
Conditions: with gli2_mouse Gli2, Q0VGT2
Remark: another data set of the same source

Row | Variant | effect of a mutation on the interaction
3 | MAELRPSGAPGPTAPPAPGPTAPPAFASLFPPGLHAIYGECRRLYPDQPNPLQVTAIVKYWLGGPDPLDYVSMYRNVGSPSANIPEHWHYISFGLSDLYGDNRVHEFTGTDGPSGFGFELTFRLKRETGESAPPTWPAELMQGLARYVFQSENTFCSGDHVSWHSPLDNSESRIQHMLLTEDPQMQPVQTPFGVVTFLQIVGVCTEELHSAQQWNGQGILELLRTVPIAGGPWLITDMRRGETIFEIDPHLQERVDKGIETDGSNLSGVSAKCAWDDLSRPPEDDEDSRSICIGTQPRRLSGKDTEQIRETLRRGLEINSKPVLPPINPQRQNGLAHDRAPSRKDSLESDSSTAIIPHELIRTRQLESVHLKFNQESGARIPLCLRGRLLHGRHFTYKSITGDMAITFVSTGVEGAFATEEHPYAAHGPWLQILLTEEFVEKMLEDLEDLTSPEEFKLPKEYSWPEKKLKVSILPDVVFDSPLH [L380R] | disrupting interaction
4 | D159R | disrupting interaction

Variants of: B1
Conditions: with gli1_human GLI1, P08151

Row | Variant | effect of a mutation on the interaction
5 | MAELRPSGAPGPTAPPAPGPTAPPAFASLFPPGLHAIYGECRRLYPDQPNPLQVTAIVKYWLGGPDPLDYVSMYRNVGSPSANIPEHWHYISFGLSDLYGDNRVHEFTGTDGPSGFGFELTFRLKRETGESAPPTWPAELMQGLARRVFQSENTACSGRHVSWHSPLDNSESRIQHMLLTEDPQMQPVQTPFGVVTFLQIVGVCTEELHSAQQWNGQGILELLRTVPIAGGPWLITDMRRGETIFEIDPHLQERVDKGIETDGSNLSGVSAKCAWDDLSRPPEDDEDSRSICIGTQPRRLSGKDTEQIRETLRRGLEINSKPVLPPINPQRQNGLAHDRAPSRKDSLESDSSTAIIPHELIRTRQLESVHLKFNQESGALIPLCLRGRLLHGRHFTYKSITGDMAITFVSTGVEGAFATEEHPYAAHGPWLQILLTEEFVEKMLEDLEDLTSPEEFKLPKEYSWPEKKLKVSILPDVVFDSPLH [Y147R;F155A;D159R] | disrupting interaction
6 | MAELRPSGAPGPTAPPAPGPTAPPAFASLFPPGLHAIYGECRRLYPDQPNPLQVTAIVKYWLGGPDPLDYVSMYRNVGSPSANIPEHWHYISFGLSDLYGDNRVHEFTGTDGPSGFGFELTFRLKRETGESAPPTWPAELMQGLARYVFQSENTFCSGAHVSWHSPLDNSESRIQHMLLTEDPQMQPVQTPFGVVTFLQIVGVCTEELHSAQQWNGQGILELLRTVPIAGGPWLITDMRRGETIFEIDPHLQERVDKGIETDGSNLSGVSAKCAWDDLSRPPEDDEDSRSICIGTQPRRLSGKDTEQIRETLRRGLEINSKPVLPPINPQRQNGLAHDRAPSRKDSLESDSSTAIIPHELIRTRQLESVHLKFNQESGALIPLCLRGRLLHGRHFTYKSITGDMAITFVSTGVEGAFATEEHPYAAHGPWLQILLTEEFVEKMLEDLEDLTSPEEFKLPKEYSWPEKKLKVSILPDVVFDSPLH [D159A] | disrupting interaction
7 | D159R | disrupting interaction

Variants of: B1
Conditions: with gli1_human GLI1, P08151
Remark: another data set of the same source

Row | Variant | effect of a mutation on the interaction
8 | MAELRPSGAPGPTAPPAPGPTAPPAFASLFPPGLHAIYGECRRLYPDQPNPLQVTAIVKYWLGGPDPLDYVSMYRNVGSPSANIPEHWHYISFGLSDLYGDNRVHEFTGTDGPSGFGFELTFRLKRETGESAPPTWPAELMQGLARRVFQSENTACSGRHVSWHSPLDNSESRIQHMLLTEDPQMQPVQTPFGVVTFLQIVGVCTEELHSAQQWNGQGILELLRTVPIAGGPWLITDMRRGETIFEIDPHLQERVDKGIETDGSNLSGVSAKCAWDDLSRPPEDDEDSRSICIGTQPRRLSGKDTEQIRETLRRGLEINSKPVLPPINPQRQNGLAHDRAPSRKDSLESDSSTAIIPHELIRTRQLESVHLKFNQESGARIPLCLRGRLLHGRHFTYKSITGDMAITFVSTGVEGAFATEEHPYAAHGPWLQILLTEEFVEKMLEDLEDLTSPEEFKLPKEYSWPEKKLKVSILPDVVFDSPLH [Y147R;F155A;D159R;L380R] | disrupting interaction

Variants of: B2
Conditions: with sufu_human SUFU, Q9UMX1

Row | Variant | effect of a mutation on the interaction
9 | G270V;H271E;L272D | disrupting interaction
10 | G270A;H271A;L272D | disrupting interaction
